Results on two molecules are retold here after paper PMC10661074 (Protein Science : A Publication of the Protein Society, 2023).

Data set [1] concerns the molecule itself. Kind of data set: SEC; analytical HP‐SEC, Agilent AdvanceBio SEC 300 Å column, phosphate‐buffered saline pH 7.4, 1.0 mL/min, UV 220 and 280 nm; purified ferritins before the pH jump.
The target of data set [2] is T1, His‐tagged TfR1 (UniProt P02786 101-760).
T1 construct: transferrin receptor 1 (TfR1); No catalogue number is printed; also called transferrin receptor TfR1; TfR1 receptor; source: bought: Merck
Kind of data set: BLI; Octet N2; His‐tagged TfR1 (50 μg/mL) immobilised on Ni‐NTA biosensors; HFt 25–500 nM or HFt‐W4 loaded with ellipticine 50–400 nM in solution; single exponential fits. The conditions noted are these: both partners purified. On the technique in general: In BLI a coated tip is dipped into the sample, and binding shifts an interference pattern.

T1 sequence (P02786 101-760): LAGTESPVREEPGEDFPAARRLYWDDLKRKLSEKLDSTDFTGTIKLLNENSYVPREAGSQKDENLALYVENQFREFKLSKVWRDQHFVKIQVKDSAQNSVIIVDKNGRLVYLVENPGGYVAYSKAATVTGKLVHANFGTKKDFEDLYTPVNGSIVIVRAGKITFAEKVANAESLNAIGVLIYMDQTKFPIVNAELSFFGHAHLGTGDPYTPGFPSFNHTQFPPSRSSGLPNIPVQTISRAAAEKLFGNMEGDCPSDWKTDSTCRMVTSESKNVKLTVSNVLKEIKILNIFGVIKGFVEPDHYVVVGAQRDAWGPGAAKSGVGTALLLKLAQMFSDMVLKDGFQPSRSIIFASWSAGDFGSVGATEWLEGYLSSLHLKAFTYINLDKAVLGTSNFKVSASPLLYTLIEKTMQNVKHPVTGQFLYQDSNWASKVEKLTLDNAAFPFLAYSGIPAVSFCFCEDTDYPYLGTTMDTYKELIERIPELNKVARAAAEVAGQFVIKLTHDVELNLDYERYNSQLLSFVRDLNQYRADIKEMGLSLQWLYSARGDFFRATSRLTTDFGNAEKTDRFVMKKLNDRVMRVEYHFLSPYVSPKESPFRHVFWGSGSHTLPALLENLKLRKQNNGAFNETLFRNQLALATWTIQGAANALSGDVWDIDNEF

B1: HFt‐W4 (natural protein, human, UniProt P02794 1-183, looked up)
chain: MTTASTSQVRQNYHQDSEAAINRQINLELYASYVYLSMSYYFDRDDVALKNFAKYFLWQSWEEREHAEKLMKLQNQRGGRIFLQDIKKPDCDDWESGLNAMECALHLEKNVNQSLLELHKLATDKNDPWLCDFIETHYLNEQVKAIKELGDWVTNLRKMGAPESGLAEYLFDKHTLGDSDNES
notes: human ferritin heavy chain (H ferritin) with four substitutions to tryptophan; synthetic gene in pET22b; 24-mer cage; In the BLI experiment the cage was loaded with ellipticine (a small molecule, about 98 molecules per cage) by a pH jump; the protein is the same; also called HFt‐W4 mutant; hydrophobicity‐enhanced ferritin nanoparticle; source: E. coli, purified (ammonium sulfate fractionation, …)
The stoichiometry N is the number of molecules, sites or subunits per partner or assembly. What is called Kd is the constant that tells how readily two partners part at equilibrium. Consider B1, for which the “stoichiometry N” value in data set [1] stood at 24. Besides, binding in data set [2] was characterised by a dissociation constant (Kd) of 25 nM.

B2: HFt‐W6 (natural protein, human, UniProt P02794 1-183, looked up)
chain: MTTASTSQVRQNYHQDSEAAINRQINLELYASYVYLSMSYYFDRDDVALKNFAKYFLWQSWEEREHAEKLMKLQNQRGGRIFLQDIKKPDCDDWESGLNAMECALHLEKNVNQSLLELHKLATDKNDPWLCDFIETHWLNEQVKAIKELGDWVTNLRKMGAPESGLAEYLWDKHTLGDSDNES
notes: human ferritin heavy chain (H ferritin) with six substitutions to tryptophan; synthetic gene in pET22b; 24-mer cage as purified; also called HFt‐W6 mutant; source: E. coli, purified (ammonium sulfate fractionation, heat treatment at 70°C, DNase, Superdex 200 SEC); copies: 24
For B2, the “stoichiometry N” value in data set [1] stood at 24.
